T1: 6×His-tagged NmeCas9 (Neisseria meningitidis Cas9) (Neisseria meningitidis, UniProt C9X1G5 1-1082)
T1 sequence: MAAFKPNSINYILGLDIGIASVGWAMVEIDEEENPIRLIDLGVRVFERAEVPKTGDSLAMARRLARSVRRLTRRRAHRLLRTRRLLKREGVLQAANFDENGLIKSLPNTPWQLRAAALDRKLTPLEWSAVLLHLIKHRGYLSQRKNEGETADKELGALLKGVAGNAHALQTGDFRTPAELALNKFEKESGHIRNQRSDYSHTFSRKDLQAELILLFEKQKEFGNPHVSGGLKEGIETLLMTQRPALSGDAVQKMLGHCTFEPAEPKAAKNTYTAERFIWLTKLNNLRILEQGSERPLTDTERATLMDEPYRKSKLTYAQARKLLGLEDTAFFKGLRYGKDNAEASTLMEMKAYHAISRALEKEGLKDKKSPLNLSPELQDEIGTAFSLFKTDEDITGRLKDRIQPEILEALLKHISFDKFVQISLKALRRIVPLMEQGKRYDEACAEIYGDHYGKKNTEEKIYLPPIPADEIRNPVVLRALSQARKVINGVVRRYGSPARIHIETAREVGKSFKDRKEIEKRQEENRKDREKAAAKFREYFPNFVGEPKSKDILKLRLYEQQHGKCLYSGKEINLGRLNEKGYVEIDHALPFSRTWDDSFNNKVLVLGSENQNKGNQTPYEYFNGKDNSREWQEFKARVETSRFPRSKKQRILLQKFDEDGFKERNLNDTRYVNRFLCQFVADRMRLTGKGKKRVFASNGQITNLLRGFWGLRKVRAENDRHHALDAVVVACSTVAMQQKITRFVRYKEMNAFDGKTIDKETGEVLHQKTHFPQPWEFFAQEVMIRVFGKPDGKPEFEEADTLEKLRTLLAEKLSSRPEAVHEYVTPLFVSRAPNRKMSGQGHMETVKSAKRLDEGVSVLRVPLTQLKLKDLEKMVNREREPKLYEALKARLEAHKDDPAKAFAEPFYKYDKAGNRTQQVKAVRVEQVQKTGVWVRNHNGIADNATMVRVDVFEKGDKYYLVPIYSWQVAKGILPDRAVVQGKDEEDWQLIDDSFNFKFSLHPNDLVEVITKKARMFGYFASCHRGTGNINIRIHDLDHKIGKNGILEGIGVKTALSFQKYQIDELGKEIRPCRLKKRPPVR

T2: 6×His-MBP-tagged AnaCas9 (Cas9 from Actinomyces naeslundii) (Actinomyces naeslundii, UniProt J3F2B0 1-1101)
T2 construct: not shown: 6×His-MBP tag
T2 sequence: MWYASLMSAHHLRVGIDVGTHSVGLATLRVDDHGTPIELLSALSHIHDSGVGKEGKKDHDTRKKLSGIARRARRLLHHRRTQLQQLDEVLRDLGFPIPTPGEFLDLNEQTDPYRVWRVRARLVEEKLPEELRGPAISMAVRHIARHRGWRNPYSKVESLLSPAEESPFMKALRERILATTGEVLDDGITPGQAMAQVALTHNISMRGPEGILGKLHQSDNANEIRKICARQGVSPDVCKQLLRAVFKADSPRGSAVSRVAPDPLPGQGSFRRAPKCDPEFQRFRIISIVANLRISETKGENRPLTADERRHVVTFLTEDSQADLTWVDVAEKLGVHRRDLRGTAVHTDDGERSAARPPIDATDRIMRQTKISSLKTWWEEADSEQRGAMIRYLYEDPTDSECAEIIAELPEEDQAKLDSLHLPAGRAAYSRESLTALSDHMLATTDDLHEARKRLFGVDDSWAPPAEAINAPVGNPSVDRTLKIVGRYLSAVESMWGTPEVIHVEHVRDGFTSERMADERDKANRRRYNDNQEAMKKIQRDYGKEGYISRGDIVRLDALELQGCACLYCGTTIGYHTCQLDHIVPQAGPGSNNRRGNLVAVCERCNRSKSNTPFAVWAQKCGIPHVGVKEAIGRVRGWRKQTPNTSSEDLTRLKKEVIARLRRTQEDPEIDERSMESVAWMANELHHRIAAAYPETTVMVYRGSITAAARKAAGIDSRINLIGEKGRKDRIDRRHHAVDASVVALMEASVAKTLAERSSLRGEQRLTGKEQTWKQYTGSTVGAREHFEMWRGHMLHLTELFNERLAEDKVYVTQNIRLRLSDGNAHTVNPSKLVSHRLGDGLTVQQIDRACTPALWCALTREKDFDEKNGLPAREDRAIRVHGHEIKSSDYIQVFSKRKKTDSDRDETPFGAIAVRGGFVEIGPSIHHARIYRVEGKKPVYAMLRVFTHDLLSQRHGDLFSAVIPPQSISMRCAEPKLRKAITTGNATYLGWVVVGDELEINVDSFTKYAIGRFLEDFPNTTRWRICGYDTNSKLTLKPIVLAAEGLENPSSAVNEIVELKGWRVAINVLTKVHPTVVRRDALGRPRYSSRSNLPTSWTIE

B1: FLAG-AcrIIC3Nme (AcrIIC3Nme with an N-terminal FLAG tag) (other)
chain: DYKDDDDKMAFKRAIIFTSFNGFEKVSRTEKRRLAKIINARVSIIDEYLRAKDTNASLDGQYRAFLFNDESPAMTEFLAKLKAFAESCTGISIDAWEIEESEYVRLPVERRDFLAAANGKEIFKI
notes: also called 6xHis-TEV-FLAG-AcrIIC3Nme (before TEV cleavage)
B2: AcrE2 (type I-E anti-CRISPR from Pseudomonas phage JBD88a) (other)
chain: MANTYLIDPRKNNDNSGERFTVDAVDITAAAKSAAQQILGEEFEGLVYRETGESNGSGMFQAYHHLHGTNRTETTVGYPFHVMEL
notes: also called Acr88a-32; Acr88-32
B3: AcrIIC1Nme (Neisseria meningitidis Acr #1) (other)
chain: MANKTYKIGKNAGYDGCGLCLAAISENEAIKVKYLRDICPDYDGDDKAEDWLRWGTDSRVKAAALEMEQYAYTSVGMASCWEFVEL
notes: also called Acr1Nm

What was measured:
[1] = target: T1, 6×His-tagged NmeCas9 (Neisseria …); experiment: cell-based or functional assay
[2] = target: T2, 6×His-MBP-tagged AnaCas9 (Cas9 from …); experiment: nickel affinity pulldown with tagged AnaCas9, SDS-PAGE/Coomassie
[3] = target: T1, 6×His-tagged NmeCas9 (Neisseria …); experiment: nickel affinity pulldown with 6×His-NmeCas9:sgRNA, SDS-PAGE/Coomassie

| Binder | inhibition of in vitro DNA cleavage by NmeCas9, anti-CRISPR at 1:1 molar ratio [1] [%] | binding result [2] | binding result [3] |
| --- | --- | --- | --- |
| B1 | ~50 | no binding |  |
| B2 |  |  | no binding |
| B3 | ~50 | no binding |  |
